The target in experiment [1] is T1, HLA-A02/MAGE-A4 complex on the cell surface (MAGE-A4230-239 (…) presented by HLA-A02) (human). Description: cell-based or functional assay.
Experiment [2] addresses T1, HLA-A02/MAGE-A4 complex on the cell …. Description: cell-based or functional assay. The source holds these as a separate data set.
Experiment [3] deals with T2, HLA-A02 complex of … (MHC-P1-His), disulfide trap single-chain trimer (human).
T2 construct: also called recombinant protein MHC-P1
Kind of experiment: SPR, Biacore T200, method of Section 3.1; affinity for MHC-P1. In general terms: In SPR one partner is held on a chip, and binding of the other changes the refractive index at the surface.

Experiment [4] addresses T1, HLA-A02/MAGE-A4 complex on the cell …. Kind of experiment: cell-based or functional assay. The source holds these as a separate data set.
Experiment [5] shares this target. Kind of experiment: cell-based or functional assay. This is another data set of the same source.
In experiment [6] the target is T3, HLA-A02 complex of alanine-scanning mutant peptide V10A of MAGE-A4230-239 on pulsed T2 cells (human).
T3 construct: whole, on cells
Description: flow cytometry on peptide-pulsed T2 cells, N18D10-Fc at 10 nM, anti-human IgG-FITC. (In general: A flow cytometer gives signals particle by particle.)

For experiment [7], the target named is T4, HLA-A02 complex of alanine-scanning mutant peptide T9A of MAGE-A4230-239 on pulsed T2 cells (human).
T4 construct: whole, on cells
The description is as above.

Experiment [8] has as its target T1, HLA-A02/MAGE-A4 complex on the cell …. Described as above.
For experiment [9], the target named is T5, HLA-A02 complex of alanine-scanning mutant peptide H8A of MAGE-A4230-239 on pulsed T2 cells (human).
T5 construct: whole, on cells
The experiment is described as above.

The target of experiment [10] is T6, HLA-A02 complex of alanine-scanning mutant peptide V2A of MAGE-A4230-239 on pulsed T2 cells (human).
T6 construct: whole, on cells
The description is as above.

Experiment [11] concerns the target T7, HLA-A02 complex of alanine-scanning mutant peptide R6A of MAGE-A4230-239 on pulsed T2 cells (human).
T7 construct: whole, on cells
The experiment is described as above.

Experiment [12] has as its target T8, HLA-A02 complex of alanine-scanning mutant peptide G5A of MAGE-A4230-239 on pulsed T2 cells (human).
T8 construct: whole, on cells
The description is as above.

Experiment [13] addresses T9, HLA-A02 complex of alanine-scanning mutant peptide E7A of MAGE-A4230-239 on pulsed T2 cells (human).
T9 construct: whole, on cells
Described as above.

The target in experiment [14] is T10, HLA-A02 complex of alanine-scanning mutant peptide D4A of MAGE-A4230-239 on pulsed T2 cells (human).
T10 construct: whole, on cells
The experiment is described as above.

Experiment [15] deals with T11, HLA-A02 complex of alanine-scanning mutant peptide Y3A of MAGE-A4230-239 on pulsed T2 cells (human).
T11 construct: whole, on cells
The experiment is described as above.

Experiment [16] deals with T2, HLA-A02 complex of … (MHC-P1-His), …. Kind of experiment: SPR, Biacore T200; antibody captured by anti-human IgG (Fc), MHC-P1-His injected, 25°C, 1:1 model.
Experiment [17] has the same target. Description: SPR, Biacore T200, method of Section 3.1; antibody captured, MHC-P1-His injected.

B1: anti-HLA-A02/MAGE-A4 complex and anti-CD3 control bispecific antibody 057G03 (bispecific antibody)
heavy 1: AQLVESGGGLVQPGGSLRLSCAASAYFSFKAMSWVRQAPGKGLEWVGSISPSGGSTYYNDNVLGRFTISRDNSKNTLYLQMNSLRAEDTAVYYCAKDVGFFDEWGQGTLVTVSSASTKGPSVFPLAPSSKSTSGGTAALGCLVEDYFPEPVTVSWNSGALTSGVHTFPAVLQSSGLYSLSSVVTVPSSSLGTQTYICNVNHKPSNTKVDEKVEPKSCDGGGGSGGGGSDIQMTQSPSSLSASVGDRVTITCRASQDIRNYLNWYQQKPGKAPKLLIYYTSRLESGVPSRFSGSGSGTDYTLTISSLQPEDFATYYCQQGNTLPWTFGQGTKVEIKSSASTKGPSVFPLAPSSKSTSGGTAALGCLVKDYFPEPVTVSWNSGALTSGVHTFPAVLQSSGLYSLSSVVTVPSSSLGTQTYICNVNHKPSNTKVDKRVERKSCVECPPCPAPEFEGGPSVFLFPPKPKDTLMISRTPEVTCVVVDVSHEDPEVKFNWYVDGVEVHNAKTKPREEQYNSTYRVVSVLTVLHQDWLNGKEYKCKVSNKALPASIEKTISKAKGQPREPQVYTLPPCREEMTKNQVSLWCLVKGFYPSDIAVEWESNGQPENNYKTTPPVLDSDGSFFLYSKLTVDKSRWQQGNVFSCSVMHEALHNHYTQKSLSLSPGK
heavy 2: AQLVESGGGLVQPGGSLRLSCAASAYFSFKAMSWVRQAPGKGLEWVGSISPSGGSTYYNDNVLGRFTISRDNSKNTLYLQMNSLRAEDTAVYYCAKDVGFFDEWGQGTLVTVSSASTKGPSVFPLAPSSKSTSGGTAALGCLVEDYFPEPVTVSWNSGALTSGVHTFPAVLQSSGLYSLSSVVTVPSSSLGTQTYICNVNHKPSNTKVDEKVERKSCVECPPCPAPEFEGGPSVFLFPPKPKDTLMISRTPEVTCVVVDVSQEDPEVQFNWYVDGVEVHNAKTKPREEQYNSTYRVVSVLTVLHQDWLNGKEYKCKVSNKALPASIEKTISKAKGQPREPQVCTLPPSQEEMTKNQVSLSCAVKGFYPSDIAVEWESNGQPENNYKTTPPVLDSDGSFFLVSKLTVDKSRWQEGNVFSCSVMHEALHNHYTQKSLSLSPGK
light: DIQMTQSPSSLSASVGDRVTITCRASQSISSYLAWYQQKPGKAPKLLIYDASIRDIGVPSRFSGSGSGTDFTLTISSLQPEDFATYYCQQYSSYPYTFGQGTKLEIKRTVAAPSVFIFPPSDRKLKSGTASVVCLLNNFYPREAKVQWKVDNALQSGNSQESVTEQDSKDSTYSLSSTLTLSKADYEKHKVYACEVTHQGLSSPVTKSFNRGEC
chain: EVQLVESGGGLVQPGGSLRLSCAASGYSFTGYTMNWVRQAPGKGLEWVALINPYKGVSTYNQKFKDRFTISVDKSKNTAYLQMNSLRAEDTAVYYCARSGYYGDSDWYFDVWGQGTLVTVSSASVAAPSVFIFPPSDEQLKSGTASVVCLLNNFYPREAKVQWKVDNALQSGNSQESVTEQDSKDSTYSLSSTLTLSKADYEKHKVYACEVTHQGLSSPVTKSFNRGEC
notes: also called 057D03 (variable regions)
The Kd is the equilibrium constant for the complex coming apart. Read a high Kd as weaker binding. One may read the koff as the first-order rate constant of dissociation. In general, kon refers to the second-order rate constant of association. Consider B1, for which the “EC50 of activation of Jurkat-Dual cells via HLA-A02+/MAGE-A4+ tumor cells A375 (QUANTI-Luc)” value in experiment [1] stood at 0.749 nM. In addition, in [2], the “EC50 of killing of antigen peptide-pulsed T2 cells via PBMCs (LDH release)” value is 0.00453 nM. Moreover, in experiment [3], the Kd was found to be 33 nM, the koff worked out at 0.0167 s⁻¹ and the kon came to 507000 M⁻¹ s⁻¹. Moreover, the “EC50 of activation of Jurkat-Dual cells via antigen peptide-pulsed T2 cells (QUANTI-Luc)” value in experiment [4] came out at 0.175 nM. Also, the “EC50 of killing of A375 cells (HLA-A02+/MAGE-A4+) via PBMCs (LDH release)” value (“EC50 of killing of A375 cells” for short) in [5] was determined as 5.52 nM.

B2: TCRm x CD3 bispecific antibody 2N18D10-h16+IMCR (bispecific antibody)
chain 1: QVQLVESGGGLVKPGGSLRLSCAVSGFTFDDSDMGWYRQAPGNECELVSTITTDGSTYYADSVKGRFTISQDNAKTSAYLQMNSLRAEDTAVYYCAADLPILRPTPCGDSVLYNYWGQGTTVTVSSGGGGSGGGGSGGGGSQVQLVESGGGLVKPGGSLRLSCAVSGFTFDDSDMGWYRQAPGNECELVSTITTDGSTYYADSVKGRFTISQDNAKTSAYLQMNSLRAEDTAVYYCAADLPILRPTPCGDSVLYNYWGQGTTVTVSSASERKSSVECPPCPAPEFEGGPSVFLFPPKPKDTLMISRTPEVTCVVVDVSQEDPEVQFNWYVDGVEVHNAKTKPREEQYNSTYRVVSVLTVLHQDWLNGKEYKCKVSNKALPASIEKTISKAKGQPREPQVCTLPPSQEEMTKNQVSLSCAVKGFYPSDIAVEWESNGQPENNYKTTPPVLDSDGSFFLVSKLTVDKSRWQEGNVFSCSVMHEALHNHYTQKSLSLSPGK
chain 2: not shown
notes: also called 22N18D10-h16+IMCR
As to B2, the “EC50 of activation of Jurkat-Dual cells via HLA-A02+/MAGE-A4+ tumor cells A375 (QUANTI-Luc)” value in experiment [1] turned out to be 0.145 nM. The “EC50 of killing of antigen peptide-pulsed T2 cells via PBMCs (LDH release)” value in [2] was found to be 0.00256 nM. Also, in experiment [3], the affinity, expressed as Kd, was 0.43 nM; the koff was 7.83e-05 s⁻¹; the association rate constant (kon) came to 182000 M⁻¹ s⁻¹. The “EC50 of activation of Jurkat-Dual cells via antigen peptide-pulsed T2 cells (QUANTI-Luc)” value in [4] was found to be 0.0143 nM. Besides, the “EC50 of killing of A375 cells” value in [5] came out at 0.0761 nM.

B3: TCRm x CD3 bispecific antibody 2N18D10+IMCR (bispecific antibody)
chain 1: EVQLVESGGGSVQTGETLRLSCTVSGFTFDDSDMGWYRQAPGNECELVSTITTDGSTYYADSVKGRFTISQDNAKTTAYLQMDSLKPEDTAVYYCAADLPILRPTPCGDSVLYNYWGQGTQVTVSSGGGGSGGGGSGGGGSEVQLVESGGGSVQTGETLRLSCTVSGFTFDDSDMGWYRQAPGNECELVSTITTDGSTYYADSVKGRFTISQDNAKTTAYLQMDSLKPEDTAVYYCAADLPILRPTPCGDSVLYNYWGQGTQVTVSSASERKSSVECPPCPAPEFEGGPSVFLFPPKPKDTLMISRTPEVTCVVVDVSQEDPEVQFNWYVDGVEVHNAKTKPREEQYNSTYRVVSVLTVLHQDWLNGKEYKCKVSNKALPASIEKTISKAKGQPREPQVCTLPPSQEEMTKNQVSLSCAVKGFYPSDIAVEWESNGQPENNYKTTPPVLDSDGSFFLVSKLTVDKSRWQEGNVFSCSVMHEALHNHYTQKSLSLSPGK
chain 2: not shown
Consider B3, for which, in experiment [1], the “EC50 of activation of Jurkat-Dual cells via HLA-A02+/MAGE-A4+ tumor cells A375 (QUANTI-Luc)” value came out at 0.189 nM. In addition, in experiment [2], the “EC50 of killing of antigen peptide-pulsed T2 cells via PBMCs (LDH release)” value is 0.00236 nM. Further, in [3], the affinity, expressed as Kd, was 0.388 nM; the off-rate constant (koff) was determined as 7.61e-05 s⁻¹; the kon worked out at 196000 M⁻¹ s⁻¹. Also, the “EC50 of activation of Jurkat-Dual cells via antigen peptide-pulsed T2 cells (QUANTI-Luc)” value in [4] was determined as 0.0145 nM. The “EC50 of killing of A375 cells” value in [5] was 0.0498 nM.

B4: anti-HLA-A02/MAGE-A4 complex TCRm antibody N18D10-Fc (Fc fusion)
chain: EVQLVESGGGSVQTGETLRLSCTVSGFTFDDSDMGWYRQAPGNECELVSTITTDGSTYYADSVKGRFTISQDNAKTTAYLQMDSLKPEDTAVYYCAADLPILRPTPCGDSVLYNYWGQGTQVTVSS
notes: Camel VHH fused to the Fc region of human IgG1; not shown: Fc region of human IgG1
For the molecule B4, the “binding relative to the original peptide” value in experiment [6] is 0.35%; in experiment [7], 33.6%; in experiment [8], 100%; in experiment [9] it was -0.13%; in experiment [10], 41.1%; in [11], -0.56%. Also, the “binding relative to the original peptide” value in experiment [12] was -1.02%; in experiment [13] it was 27.4%; in experiment [14] it was 18.4%; in [15], -0.12%. For the same molecule, in experiment [16], binding was characterised by a dissociation constant (Kd) of 0.388 nM. For the same molecule, the koff in experiment [16] is 7.18e-05 s⁻¹. In experiment [16], the on-rate constant (kon) stood at 185000 M⁻¹ s⁻¹.

B5: humanized anti-HLA-A02/MAGE-A4 complex TCRm antibody N18D10-h16-Fc (Fc fusion)
chain: QVQLVESGGGLVKPGGSLRLSCAVSGFTFDDSDMGWYRQAPGNECELVSTITTDGSTYYADSVKGRFTISQDNAKTSAYLQMNSLRAEDTAVYYCAADLPILRPTPCGDSVLYNYWGQGTTVTVSS
notes: Humanized VHH fused to the Fc region of human IgG1; not shown: Fc region of human IgG1
In [17], B5 yielded an equilibrium dissociation constant (Kd) of 0.467 nM, a dissociation rate constant (koff) of 7.61e-05 s⁻¹ and a kon of 163000 M⁻¹ s⁻¹.

Values taken from patent EP4772538A1 (Beijing Wisdomab Biotechnology Co., Ltd, dated 2026).
